The source of these data is paper PMC10937788 (Plant Molecular Biology, 2024).

In one data set the target is T1, SyArgG (Synechocystis sp. PCC 6803, UniProt P77973).
T1 construct: gene argG; synthetic ORF in pGEX-6P-1 (BamHI-XhoI); GST-tagged, tag kept (eluted with glutathione, no cleavage described); expressed in E. coli BL21(DE3)
T1 sequence (P77973 1-400): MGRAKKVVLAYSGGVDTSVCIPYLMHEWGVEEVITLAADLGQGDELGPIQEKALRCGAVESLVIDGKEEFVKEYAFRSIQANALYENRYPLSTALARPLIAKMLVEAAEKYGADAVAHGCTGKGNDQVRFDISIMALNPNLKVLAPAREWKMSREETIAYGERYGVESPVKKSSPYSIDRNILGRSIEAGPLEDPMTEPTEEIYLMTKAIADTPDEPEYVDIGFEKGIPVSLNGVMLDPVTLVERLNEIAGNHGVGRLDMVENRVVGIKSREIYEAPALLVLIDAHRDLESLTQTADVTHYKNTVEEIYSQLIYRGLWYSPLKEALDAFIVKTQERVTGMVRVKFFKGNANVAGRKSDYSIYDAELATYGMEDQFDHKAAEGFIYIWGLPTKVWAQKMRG
Description: coupled NADH oxidation assay (myokinase, pyruvate kinase, lactate dehydrogenase), […] nm. Conditions: read-out: % residual activity at 5 mM. In kind it is biochemical.

Substrate in data set [1]: N[C@@H](CC(=O)O)C(=O)O
Description: purified protein. Conditions: 38 °C, pH 9.0 Tris-HCl, 5 mM MgCl2, 2 mM KCl, co-substrates 7.5 mM citrulline, 1 mM ATP.

Substrate in data set [2]: Nc1ncnc2c1ncn2[C@@H]1O[C@H](COP(=O)(O)OP(=O)(O)OP(=O)(O)O)[C@@H](O)[C@H]1O
Description: purified protein. The data set is classed as biochemical, Synechocystis sp. PCC 6803. The conditions noted are these: 38 °C, pH 9.0 Tris-HCl, 5 mM MgCl2, 2 mM KCl, co-substrates 7.5 mM citrulline, 7.5 mM aspartate.

Substrate in data set [3]: NC(=O)NCCC[C@H](N)C(=O)O
Briefly: purified protein. In kind it is biochemical, Synechocystis sp. PCC 6803. Conditions: 38 °C, pH 9.0 Tris-HCl, 5 mM MgCl2, 2 mM KCl, co-substrates 7.5 mM aspartate, 1 mM ATP.

As for `NCCCC[C@H](N)C(=O)O` [lysin], the remaining activity at 5000 µM at SyArgG is 78.1%.
The same measure, in the same setting: the value for `O=C(O)CCC(=O)O` [succinate] was 92.1%.
On to `N=C(N)NCCC[C@H](N)C(=O)O` [arginine], for which the remaining activity at 5000 µM on SyArgG amounted to 18.4%.
The same measure, in the same setting: next, `NCCC[C@H](N)C(=O)O` [ornithine]: 80.1%.

B1: SyArgG (Synechocystis sp. PCC 6803 substr. Kazusa) (protein)
chain: T1 sequence (P77973 1-400)
notes: synthetic ORF in pGEX-6P-1 (BamHI-XhoI); GST-tagged, tag kept (eluted with glutathione, no cleavage described); expressed in E. coli BL21(DE3)
For B1, the values for the Km in “purified protein [1]”, in the data set “purified protein [2]” and in the data set “purified protein [3]” were 360 ± 40 µM, 260 ± 10 µM and 350 ± 10 µM, respectively. Also, the kcat in the data set “purified protein [1]” stood at 0.77 s⁻¹; in the data set “purified protein [2]”, 0.7 ± 0.002 s⁻¹; in “purified protein [3]” it was 0.69 ± 0.01 s⁻¹. For the same molecule, the specificity constant (kcat/Km) was determined as 2160 M⁻¹ s⁻¹ in “purified protein [1]”, 2750 ± 120 M⁻¹ s⁻¹ in “purified protein [2]” and 1970 ± 50 M⁻¹ s⁻¹ in “purified protein [3]”.
